In US20170275357A1 one finds % Inhibition of PDGFC-induced NHLF proliferation and % Inhibition of PDGFD-induced NHLF proliferation data, which are given here for 1 molecule.

The assay addresses PDGFRα/PDGFRβ. As to the kind of experiment: cell-based or functional assay.

B1: α/βVCV2 IgG1.1 (bispecific antibody)
heavy: EVQLVESGGGLVKPGGSLKLSCAASGFAFSSYAMSWVRQSPEKRLEWVATISSGGHYTFYPDSVKGRFTISRDNAKNTLYLQMSSLRSEDTAIYYCARRYYALDYWGQGTSVTVSSASTKGPSVFPLAPSSKSTSGGTAALGCLVKDYFPEPVTVSWNSGALTSGVHTFPAVLQSSGLYSLSSVVTVPSSSLGTQTYICNVNHKPSNTKVDKKVEPKSCGGGGSGGGGSEVQLQQSGPELVKTGASVKISCKASGYSFINHYMNWVKQSRGKSLEWIGYVSCYNGATGYNQKFKDKATFTVDTSSSTAYMQFNNLTSEDSAVYYCARRGFMEAMDYWGQGTSVTVSSEPKSSDKTHTCPPCPAPEAEGAPSVFLFPPKPKDTLMISRTPEVTCVVVDVSHEDPEVKFNWYVDGVEVHNAKTKPREEQYNSTYRVVSVLTVLHQDWLNGKEYKCKVSNKALPSSIEKTISKAKGQPREPQVYTLPPSRDELTKNQVSLTCLVKGFYPSDIAVEWESNGQPENNYKTTPPVLDSDGSFFLYSKLTVDKSRWQQGNVFSCSVMHEALHNHYTQKSLSLSPGK
light: DIVMTQSQKFMSTSLGDRVSVSCKASQNVLTNVAWYQQKPGQSPKTLIYSASYRYSGVPDRFTGSGSGTDFTLTISIVQSEDLAEYFCQQYNIYPWTFGGGTKLEIKRTVAAPSVFIFPPSDEQLKSGTASVVCLLNNFYPREAKVQWKVDNALQSGNSQESVTEQDSKDSTYSLSSTLTLSKADYEKHKVYACEVTHQGLSSPVTKSFNRGECGGGGSGGGGSDIVMTQSPFSLTVTVGEKVTMSCKSSQSLLNSRTRKNYLAWYQQKPGQSPKLLIYWASTRESGVPDRFTGSGSGTDFTLTISSVQAEDLAVYYCKQSYNLYTFGGGTKLEIK
Regarding B1, the % Inhibition of PDGFC-induced NHLF proliferation is 70% and the % Inhibition of PDGFD-induced NHLF proliferation was 100%.
